This is an account of results in patent publication US20110250211A1 (INSTITUT PASTEUR, published 2011).

For test [1], the target named is T1, human glial fibrillary acidic protein (GFAP) (human, UniProt P14136 1-432).
T1 construct: the endogenous protein in fixed human brain sections in the immunolabelling experiments; also called hGFAP
The test can be described thus: equilibrium competition ELISA in solution (Friguet et al.). The method, then: (§1) The binding affinity of VHHs was determined as described by FRIGUET et al. (1985, J Immunol Methods, 77:305-319). Briefly, various concentrations of GFAP were incubated in solution overnight at 4° C. with a known quantity of VHH until equilibrium was reached. The VHH concentration had been determined by preliminary ELISA calibrations. 100 μl of solution was transferred to a well of a microtiter plate previously coated with GFAP and was incubated for 20 min at 4° C. The plates were washed with PBS-Tween 0.1%. VHHs were detected with rabbit anti-His tag antibodies (eBiosciences, San Diego, Calif.) followed by adding β-galactosidase-conjugated goat anti-rabbit Igs (Biosys, Compiegne, France) and 4-methylumbelliferyl β-D galactoside (Sigma Aldrich, Saint-Quentin Fallavier, France). Fluorescence was read at 460 nm, after excitation at 355 nm. KD was estimated from the slope of the regression curve obtained by plotting the reciprocal of the fraction of bound antibody versus the reciprocal of the molar concentration of antigen.
For orientation: In an ELISA, binding on a coated surface is turned into a signal by an enzyme label.

The target in test [2] is T2, murine glial fibrillary acidic protein (GFAP) (mouse, UniProt P03995 1-430).
T2 construct: Endogenous protein of brain extracts, brain sections or live brain; also called GFAP in murine brain extracts; GFAP in mouse astrocytes
Kind of test: Western blot of murine brain extracts. On the procedure:
Murine brain extracts were electrophoresed, immunoblotted and incubated with the VHH domains VHH-A10, -B8, -E3 and -E9.
Murine brain proteins (300 mg) were extracted in a potter with 600 μl of NuPage LDS sample buffer (Invitrogen) and kept for […] at 70° C. An aliquot was diluted 1:10 (v/v) with the same sample buffer then treated at 70° C. for 10 min. Following separation by polyacrylamide gel electrophoresis (PAGE) using NuPAGE Novex 4-12% Bis-tris gel (Invitrogen), semi-dry transfer onto Hybond-C (Amersham) and western blotting were carried out using the Xcell II blot module (Invitrogen). Prior to the immunochemical reaction, membranes were blocked in a 4% skimmed milk solution. […] Finally, peroxidase activity was visualized using a chemiluminescent kit (Amersham).
On the technique in general: Immunoblotting shows a protein as a band on a membrane.

For test [3], the target named is T1, human glial fibrillary acidic protein …. The test can be described thus: immunohistochemistry on human brain paraffin sections. The method, then: Immunostaining of human brain tissue was performed on 5 μm thick paraffin sections. Sections were de-paraffinized in xylene, rehydrated through ethanol (100%, 96%, and 90%) and finally brought to water. They were incubated with 3% hydrogen peroxyde and 20% methanol, to quench for endogenous peroxydases, and washed in water. Non-specific binding was blocked by incubating the sections for 10 minutes in 2% bovine serum albumin in TBS plus 0.5% Tween.
The distribution of VHH-specific immunoreactivity in mouse and human brains sections were examined after aldehyde fixation and membranes permeabilization, using standard procedure for immunostaining. Immunohistochemistry experiments were performed with VHH-A10 (SEQ ID NO: 5) or VHH domain of SEQ ID NO: 3 fused in frame with the Ig CH2 domain and the His tag (SEQ ID NO: 29) were both used. With this construction, the signal could be amplified by using rabbit anti-alpaca Ig polyclonal antibodies as secondary antibodies, in turn labelled by an anti-rabbit goat polyclonal antibody. As previously reported (LAFAYE et al, 1995, above-cited), the results obtained were similar with the His-tagged antibody.

The target of test [4] is T2, murine glial fibrillary acidic protein …. Kind of test: immunohistochemistry on fixed, permeabilized brain sections.
Test [5] addresses T1, human glial fibrillary acidic protein …. Kind of test: equilibrium competition ELISA in solution (Friguet et al.), GFAP-coated plate. On the procedure:
as §1

For test [6] the target is unchanged. Kind of test: competition ELISA (Friguet) after heating 15 min at 75 C and cooling 20 min at 4 C. The method, then: as §1
The heat denaturation of VHH-E9 was adapted to the method described in OLICHON et al. (2007, BMC Biotechnol., 7:7). VHHs are re-suspended in PBS/NaCl 300 mM and are heated for 15 minutes at 75° C. then cooled down at 4° C. for 20 minutes. The binding affinity of VHHs was determined by ELISA as described in Example 1 above.

Test [7] has the same target. Kind of test: competition ELISA (Friguet) as in Example 1. The method, then:
as §1

T2 sequence (P03995 whole entry): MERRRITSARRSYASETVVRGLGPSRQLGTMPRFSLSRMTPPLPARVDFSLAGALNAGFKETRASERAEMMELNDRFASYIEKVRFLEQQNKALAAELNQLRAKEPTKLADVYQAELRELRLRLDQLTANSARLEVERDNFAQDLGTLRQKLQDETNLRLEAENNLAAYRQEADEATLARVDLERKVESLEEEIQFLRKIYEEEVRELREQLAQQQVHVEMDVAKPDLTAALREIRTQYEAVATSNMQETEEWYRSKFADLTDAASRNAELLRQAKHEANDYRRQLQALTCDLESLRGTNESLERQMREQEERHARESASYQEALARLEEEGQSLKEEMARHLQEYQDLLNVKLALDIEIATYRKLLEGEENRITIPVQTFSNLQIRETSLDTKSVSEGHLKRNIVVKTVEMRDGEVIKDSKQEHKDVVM
T1 sequence (P14136 whole entry): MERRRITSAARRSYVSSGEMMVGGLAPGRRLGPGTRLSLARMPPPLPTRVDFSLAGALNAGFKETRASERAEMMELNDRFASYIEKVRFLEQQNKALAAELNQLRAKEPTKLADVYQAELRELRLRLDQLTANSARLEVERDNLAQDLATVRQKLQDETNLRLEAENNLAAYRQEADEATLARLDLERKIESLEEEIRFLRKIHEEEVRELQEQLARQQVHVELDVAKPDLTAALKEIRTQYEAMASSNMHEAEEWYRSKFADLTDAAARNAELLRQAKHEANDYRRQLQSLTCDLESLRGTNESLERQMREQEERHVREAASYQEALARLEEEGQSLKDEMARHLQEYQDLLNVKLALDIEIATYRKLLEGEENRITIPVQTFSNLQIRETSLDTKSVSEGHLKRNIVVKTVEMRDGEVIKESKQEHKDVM

B1: VHH-B8 (VHH)
VHH: DVQLQVSGGGSVQPGGSLRLSCAAPGFTFSNYAMYWLRQAPGKGIEWVSRIGPGGSHTEYADSVKGRFAISRDNAKNTLSLQMNSLKPEDTAAYYCAITQQGSGRGRGTQVTVSSAAASLSTELEFGSELIPISMADVQLQVSGGGSVQPGGSLRLSCAASGFTFSNYAMYWLRQAPGKGIEWVSRIGPGGSHTEYADSVKGRFTISRDNAKNTLSLQMNSLKPEDTAVYYCAITQQGSGRGRGTQVTVSSAAALEHHHHHH
notes: One polypeptide entry
Molecule B1 displayed a dissociation constant (Kd) in test [1] of 5.2 nM. In test [2], the binding result is on record as “binds”.

B2: VHH domain of SEQ ID NO: 3 fused in frame with the Ig CH2 domain and the His tag (VHH)
chain: DVQLRASGGGLVQPGGSLRLSCAASGFTFSNYAMYWLRQAPGKGIEWVSRIGPGGSHTEYADSVKGRFTISRDNAKNTLSLQMNSLKPEDTAVYYCAITQQGSGRGQETQVTVSSAAAAPELLGGPSVFIFPPKPKDVLSISGRPEVTCVVVDVGQEDPEVSFNWYIDGAEVRTANTRPKEEQFNSTYRVVSVLPIQHQDWLTGKEFKCKVNNKALPAPIEKTISKAKLEHHHHHH
notes: the sentence could be read otherwise; also called VHH-A10 fused with the CH2 domain
For the molecule B2, the binding result in test [3] and in test [4] was “binds” each time.

B3: VHH-E9 (VHH)
VHH: DVQLQVSGGGSVQPGGSLRLSCAASGFTFSNYAMYWLRQAPGKGIEWVSRIGPGGSHTEYADSVKGRFTISRDNAKNTLSLQMNSLKPEDTAVYYCAITQQGSGRGQGTQVTVSS
notes: Alpaca VHH with C-terminal His tag; also called anti-GFAP VHH-E9; native VHH-E9
As for B3, the Kd worked out at 5.6 nM in test [5] and 3.8 nM in test [6]. For the same molecule, the binding result in test [2] is given as “binds”.

B4: VHH-E9 SS-free (VHH)
VHH: DVQLQVSGGGSVQPGGSLRLSSAASGFTFSNYAMYWLRQAPGKGIEWVSRIGPGGSHTEYADSVKGRFTISRDNAKNTLSLQMNSLKPEDTAVYYSAITQQGSGRGQGTQVTVSSAAALEHHHHHH
notes: also called cysteine-free derivative of VHH E9
As to B4, in test [7], the Kd was 12 nM and the “fold reduction of affinity against native VHH-E9” value is 2 fold.

B5: VHH-A10 (VHH)
VHH: DVQLRASGGGLVQPGGSLRLSCAASGFTFSNYAMYWLRQAPGKGIEWVSRIGPGGSHTEYADSVKGRFTISRDNAKNTLSLQMNSLKPEDTAVYYCAITQQGSGRGQETQVTVSSAAALEHHHHHH
notes: Alpaca VHH with C-terminal His tag, expressed in the E. coli periplasm from pET22; also called anti-GFAP VHH-A10; VHH-His
As for B5, the affinity in test [5], expressed as Kd, was 3.1 nM. Besides, in test [2], the binding result is given as “binds”.

B6: VHH-E3 (VHH)
VHH: DVQLQVSGGGSVQPGGSLRLSCAAPGFTFSNYAMYWLRQAPGKGIEWVSRIGPGGSHTEYADSVKGRFAISRDNAKNTLSLQMNSLKPEDTAAYYCAITQQGSGRGRGTQVTVSS
notes: Alpaca VHH with C-terminal His tag; also called anti-GFAP VHH-E3
As to B6, in test [2], the binding result is on record as “binds”.

As a reminder, the Kd is a measure of binding affinity in units of concentration. A higher Kd goes with lower affinity.
